From the supplement of paper PMC10567573

B1: FAM164A (parent)
chain: YDPDYIQCPYCQRRFNENAADRHI

Variants of: B1
Test: protein stability index of a GFP-peptide fusion (GPS, HEK-293T) (PSI 1-6); higher = more stable
Conditions: c terminus: a fixed tail appended
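Also: lentivirally expressed fusions sorted by FACS into six bins by GFP to DsRed ratio, PSI derived from sequencing read proportions per bin multiplied by bin number.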

Going from YDPDYIQCPHCQRRFNENAADRHI [Y10H] to YDPDYIQCPICQRRFNENAADRHI [Y10I], the protein stability index falls from 3.6 to 3.15.

Compared with YDPDYIQCPKCQRRFNENAADRHI [Y10K], YDPDYIQCPLCQRRFNENAADRHI [Y10L] is lower in protein stability index: 3.66 for the first, 3.02 for the second.

First: YDPDYIQCPMCQRRFNENAADRHI [Y10M]
Second: YDPDYIQCPNCQRRFNENAADRHI [Y10N]
The protein stability index of the first is lower: 3.53 for the first, 3.91 for the second.

Going from YDPDYIQCPPCQRRFNENAADRHI [Y10P] to YDPDYIQCPQCQRRFNENAADRHI [Y10Q], the protein stability index falls from 3.72 to 3.45.

Compared with YDPDYIQCPRCQRRFNENAADRHI [Y10R], YDPDYIQCPSCQRRFNENAADRHI [Y10S] is higher in protein stability index: 2.99 for the first, 3.9 for the second.

First: YDPDYIQCPTCQRRFNENAADRHI [Y10T]
Second: YDPDYIQCPVCQRRFNENAADRHI [Y10V]
The protein stability index of the first is higher: 3.56 for the first, 3.49 for the second.

Compared with YDPDYIQCPWCQRRFNENAADRHI [Y10W], YDPDYIQCPYAQRRFNENAADRHI [C11A] is lower in protein stability index: 3.89 for the first, 3.48 for the second.

First: YDPDYIQCPYDQRRFNENAADRHI [C11D]
Second: YDPDYIQCPYEQRRFNENAADRHI [C11E]
The protein stability index of the first is lower: 3.81 for the first, 4.23 for the second.

First: YDPDYIQCPYFQRRFNENAADRHI [C11F]
Second: YDPDYIQCPYGQRRFNENAADRHI [C11G]
The protein stability index of the first is lower: 3.45 for the first, 3.75 for the second.

Compared with YDPDYIQCPYHQRRFNENAADRHI [C11H], YDPDYIQCPYIQRRFNENAADRHI [C11I] is lower in protein stability index: 3.69 for the first, 3.22 for the second.

Compared with YDPDYIQCPYKQRRFNENAADRHI [C11K], YDPDYIQCPYLQRRFNENAADRHI [C11L] is lower in protein stability index: 3.57 for the first, 3.13 for the second.

Compared with YDPDYIQCPYMQRRFNENAADRHI [C11M], YDPDYIQCPYNQRRFNENAADRHI [C11N] is higher in protein stability index: 3.65 for the first, 4.36 for the second.

Compared with YDPDYIQCPYPQRRFNENAADRHI [C11P], YDPDYIQCPYQQRRFNENAADRHI [C11Q] is lower in protein stability index: 3.65 for the first, 3.47 for the second.

Going from YDPDYIQCPYRQRRFNENAADRHI [C11R] to YDPDYIQCPYSQRRFNENAADRHI [C11S], the protein stability index rises from 3.06 to 4.03.

Compared with YDPDYIQCPYTQRRFNENAADRHI [C11T], YDPDYIQCPYVQRRFNENAADRHI [C11V] is lower in protein stability index: 3.72 for the first, 3.57 for the second.

Compared with YDPDYIQCPYWQRRFNENAADRHI [C11W], YDPDYIQCPYYQRRFNENAADRHI [C11Y] is higher in protein stability index: 3.42 for the first, 3.45 for the second.

Compared with YDPDYIQCPYCARRFNENAADRHI [Q12A], YDPDYIQCPYCCRRFNENAADRHI [Q12C] is lower in protein stability index: 4.08 for the first, 3.84 for the second.

First: YDPDYIQCPYCDRRFNENAADRHI [Q12D]
Second: YDPDYIQCPYCERRFNENAADRHI [Q12E]
The protein stability index of the first is lower: 3.26 for the first, 4.04 for the second.

Going from YDPDYIQCPYCFRRFNENAADRHI [Q12F] to YDPDYIQCPYCGRRFNENAADRHI [Q12G], the protein stability index rises from 4.24 to 4.74.

First: YDPDYIQCPYCHRRFNENAADRHI [Q12H]
Second: YDPDYIQCPYCIRRFNENAADRHI [Q12I]
The protein stability index of the first is higher: 4.93 for the first, 2.52 for the second.

First: YDPDYIQCPYCKRRFNENAADRHI [Q12K]
Second: YDPDYIQCPYCLRRFNENAADRHI [Q12L]
The protein stability index of the first is higher: 5.16 for the first, 4.9 for the second.

First: YDPDYIQCPYCMRRFNENAADRHI [Q12M]
Second: YDPDYIQCPYCNRRFNENAADRHI [Q12N]
The protein stability index of the first is lower: 3.85 for the first, 4.05 for the second.

Compared with YDPDYIQCPYCPRRFNENAADRHI [Q12P], YDPDYIQCPYCRRRFNENAADRHI [Q12R] is higher in protein stability index: 2.64 for the first, 4.27 for the second.

Going from YDPDYIQCPYCSRRFNENAADRHI [Q12S] to YDPDYIQCPYCTRRFNENAADRHI [Q12T], the protein stability index falls from 3.52 to 2.4.

Going from YDPDYIQCPYCVRRFNENAADRHI [Q12V] to YDPDYIQCPYCWRRFNENAADRHI [Q12W], the protein stability index rises from 2.48 to 3.61.

Compared with YDPDYIQCPYCYRRFNENAADRHI [Q12Y], YDPDYIQCPYCQARFNENAADRHI [R13A] is lower in protein stability index: 4.3 for the first, 3.76 for the second.

Going from YDPDYIQCPYCQCRFNENAADRHI [R13C] to YDPDYIQCPYCQDRFNENAADRHI [R13D], the protein stability index falls from 3.17 to 3.16.

Going from YDPDYIQCPYCQERFNENAADRHI [R13E] to YDPDYIQCPYCQFRFNENAADRHI [R13F], the protein stability index rises from 3.07 to 3.18.

First: YDPDYIQCPYCQGRFNENAADRHI [R13G]
Second: YDPDYIQCPYCQHRFNENAADRHI [R13H]
The protein stability index of the first is higher: 4.23 for the first, 3.51 for the second.

Compared with YDPDYIQCPYCQIRFNENAADRHI [R13I], YDPDYIQCPYCQKRFNENAADRHI [R13K] is higher in protein stability index: 2.92 for the first, 4.32 for the second.

Compared with YDPDYIQCPYCQLRFNENAADRHI [R13L], YDPDYIQCPYCQMRFNENAADRHI [R13M] is higher in protein stability index: 2.64 for the first, 4.03 for the second.

First: YDPDYIQCPYCQNRFNENAADRHI [R13N]
Second: YDPDYIQCPYCQPRFNENAADRHI [R13P]
The protein stability index of the first is higher: 3.68 for the first, 2.24 for the second.

First: YDPDYIQCPYCQQRFNENAADRHI [R13Q]
Second: YDPDYIQCPYCQSRFNENAADRHI [R13S]
The protein stability index of the first is higher: 3.75 for the first, 3.62 for the second.

Going from YDPDYIQCPYCQTRFNENAADRHI [R13T] to YDPDYIQCPYCQVRFNENAADRHI [R13V], the protein stability index falls from 2.41 to 2.23.

Going from YDPDYIQCPYCQWRFNENAADRHI [R13W] to YDPDYIQCPYCQYRFNENAADRHI [R13Y], the protein stability index rises from 2.13 to 2.7.

Going from YDPDYIQCPYCQRAFNENAADRHI [R14A] to YDPDYIQCPYCQRCFNENAADRHI [R14C], the protein stability index rises from 4.16 to 4.41.

Compared with YDPDYIQCPYCQRDFNENAADRHI [R14D], YDPDYIQCPYCQREFNENAADRHI [R14E] is higher in protein stability index: 3.08 for the first, 3.88 for the second.

Going from YDPDYIQCPYCQRFFNENAADRHI [R14F] to YDPDYIQCPYCQRGFNENAADRHI [R14G], the protein stability index falls from 5.24 to 2.81.

Compared with YDPDYIQCPYCQRHFNENAADRHI [R14H], YDPDYIQCPYCQRIFNENAADRHI [R14I] is higher in protein stability index: 4 for the first, 4.64 for the second.

First: YDPDYIQCPYCQRKFNENAADRHI [R14K]
Second: YDPDYIQCPYCQRLFNENAADRHI [R14L]
The protein stability index of the first is lower: 4.01 for the first, 4.28 for the second.

Compared with YDPDYIQCPYCQRMFNENAADRHI [R14M], YDPDYIQCPYCQRNFNENAADRHI [R14N] is lower in protein stability index: 3.77 for the first, 2.68 for the second.

First: YDPDYIQCPYCQRPFNENAADRHI [R14P]
Second: YDPDYIQCPYCQRQFNENAADRHI [R14Q]
The protein stability index of the first is lower: 3.9 for the first, 4.24 for the second.

First: YDPDYIQCPYCQRSFNENAADRHI [R14S]
Second: YDPDYIQCPYCQRTFNENAADRHI [R14T]
The protein stability index of the first is lower: 4.11 for the first, 4.45 for the second.

First: YDPDYIQCPYCQRVFNENAADRHI [R14V]
Second: YDPDYIQCPYCQRWFNENAADRHI [R14W]
The protein stability index of the first is lower: 4.67 for the first, 5.12 for the second.

Compared with YDPDYIQCPYCQRYFNENAADRHI [R14Y], YDPDYIQCPYCQRRANENAADRHI [F15A] is lower in protein stability index: 4.52 for the first, 3.08 for the second.

Compared with YDPDYIQCPYCQRRCNENAADRHI [F15C], YDPDYIQCPYCQRRDNENAADRHI [F15D] is lower in protein stability index: 3.34 for the first, 3.17 for the second.

Going from YDPDYIQCPYCQRRENENAADRHI [F15E] to YDPDYIQCPYCQRRGNENAADRHI [F15G], the protein stability index falls from 3.59 to 2.83.
